{"source": "patent US20110151450", "test_in_all_cases": "cleavage_in_vitro", "key": {"[1]": {"tested_on": "T1, DraIII-HF T181A (Deinococcus radiophilus)", "T1 sequence": "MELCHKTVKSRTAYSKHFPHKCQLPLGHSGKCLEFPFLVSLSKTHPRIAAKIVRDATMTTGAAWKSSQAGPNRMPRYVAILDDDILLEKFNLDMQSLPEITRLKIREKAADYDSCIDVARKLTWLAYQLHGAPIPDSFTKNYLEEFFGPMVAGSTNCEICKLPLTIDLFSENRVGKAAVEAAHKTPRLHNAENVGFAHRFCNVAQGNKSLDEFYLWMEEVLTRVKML", "conditions": "NEB4, 37 C 1 h, relative activity 100%; Table 1 gives >=2000"}, "[2]": {"tested_on": "T2, DraIII-WT (Deinococcus radiophilus)", "T2 sequence": "T1 sequence with A181T", "conditions": "NEB4, 37 C 1 h, relative activity 50%"}, "[3]": {"tested_on": "T3, PspGI-HF R75A (Pyrococcus species)", "T3 sequence": "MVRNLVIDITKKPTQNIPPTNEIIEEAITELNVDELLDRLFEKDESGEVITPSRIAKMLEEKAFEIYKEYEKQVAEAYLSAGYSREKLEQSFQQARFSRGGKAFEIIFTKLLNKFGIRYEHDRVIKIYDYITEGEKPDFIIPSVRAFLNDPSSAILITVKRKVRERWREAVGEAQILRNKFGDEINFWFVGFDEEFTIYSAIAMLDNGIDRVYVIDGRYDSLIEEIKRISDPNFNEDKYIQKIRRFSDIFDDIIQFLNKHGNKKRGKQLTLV", "conditions": "NEB4, relative activity 100%"}, "[4]": {"tested_on": "T4, PspGI-WT (Pyrococcus species)", "T4 sequence": "T3 sequence with A75R", "conditions": "NEB4, relative activity 100%"}, "[5]": {"target": "T5, SfiI-HF R114A (Streptomyces fimbriatus) (UniProt O52512)", "T5 sequence": "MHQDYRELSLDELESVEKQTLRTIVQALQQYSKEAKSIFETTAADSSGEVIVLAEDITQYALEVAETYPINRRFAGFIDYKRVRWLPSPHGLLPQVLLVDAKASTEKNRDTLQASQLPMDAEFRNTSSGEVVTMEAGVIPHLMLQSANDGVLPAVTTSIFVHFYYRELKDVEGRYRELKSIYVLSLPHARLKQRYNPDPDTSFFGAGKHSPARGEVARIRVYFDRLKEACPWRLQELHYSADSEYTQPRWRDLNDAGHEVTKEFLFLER", "conditions": "NEB4, relative activity 100%"}, "[6]": {"target": "T6, SfiI-WT (Streptomyces fimbriatus) (UniProt O52512)", "T6 sequence": "T5 sequence with A114R", "conditions": "NEB4, relative activity 25%"}, "[7]": {"target": "T7, HindIII-WT (Haemophilus influenzae) (UniProt P43870)", "T7 sequence": "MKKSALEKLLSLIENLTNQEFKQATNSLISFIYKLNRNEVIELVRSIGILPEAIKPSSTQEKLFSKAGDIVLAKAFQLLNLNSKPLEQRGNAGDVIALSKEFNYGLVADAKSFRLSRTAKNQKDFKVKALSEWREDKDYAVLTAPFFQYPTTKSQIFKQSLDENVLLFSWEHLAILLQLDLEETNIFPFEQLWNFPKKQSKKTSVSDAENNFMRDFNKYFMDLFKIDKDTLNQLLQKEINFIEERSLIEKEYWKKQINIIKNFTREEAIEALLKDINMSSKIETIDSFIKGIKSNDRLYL", "conditions": "NEB4, relative activity 50%"}, "[8]": {"tested_on": "T8, BstXI-HF N65T (Bacillus stearothermophilus)", "T8 sequence": "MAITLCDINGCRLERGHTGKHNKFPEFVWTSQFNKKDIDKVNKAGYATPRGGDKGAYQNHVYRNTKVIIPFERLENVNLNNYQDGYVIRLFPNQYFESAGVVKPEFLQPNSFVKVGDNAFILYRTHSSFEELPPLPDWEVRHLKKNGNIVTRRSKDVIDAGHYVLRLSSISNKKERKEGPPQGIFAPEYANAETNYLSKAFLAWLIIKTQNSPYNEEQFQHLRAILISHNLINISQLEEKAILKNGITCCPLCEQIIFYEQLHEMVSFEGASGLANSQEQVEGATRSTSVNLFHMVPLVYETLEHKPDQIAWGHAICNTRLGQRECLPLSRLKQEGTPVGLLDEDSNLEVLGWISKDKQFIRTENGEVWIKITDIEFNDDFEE", "conditions": "NEB4, relative activity 100%"}, "[9]": {"tested_on": "T9, BstXI-WT (Bacillus stearothermophilus)", "T9 sequence": "T8 sequence with T65N", "conditions": "NEB4, relative activity 100%"}, "[10]": {"tested_on": "T10, BsmBI-HF W238A (Bacillus stearothermophilus)", "T10 sequence": "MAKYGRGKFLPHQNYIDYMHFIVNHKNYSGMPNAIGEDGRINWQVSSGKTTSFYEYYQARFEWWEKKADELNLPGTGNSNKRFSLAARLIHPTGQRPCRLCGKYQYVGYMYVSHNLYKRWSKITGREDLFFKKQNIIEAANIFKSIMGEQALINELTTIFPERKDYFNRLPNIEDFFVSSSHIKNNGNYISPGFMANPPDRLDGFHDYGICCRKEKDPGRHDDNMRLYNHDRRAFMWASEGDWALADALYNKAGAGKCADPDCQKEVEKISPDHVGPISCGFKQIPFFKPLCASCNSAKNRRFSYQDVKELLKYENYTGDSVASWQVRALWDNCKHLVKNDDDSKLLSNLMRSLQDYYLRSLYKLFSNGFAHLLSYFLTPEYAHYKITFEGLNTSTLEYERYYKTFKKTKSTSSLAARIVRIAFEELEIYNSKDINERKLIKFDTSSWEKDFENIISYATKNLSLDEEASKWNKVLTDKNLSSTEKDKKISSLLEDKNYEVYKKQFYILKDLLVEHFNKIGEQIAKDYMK", "conditions": "NEB4, relative activity 100%"}, "[11]": {"tested_on": "T11, BsmBI-WT (Bacillus stearothermophilus)", "T11 sequence": "T10 sequence with A238W", "conditions": "NEB4, relative activity 25%"}, "[12]": {"tested_on": "T12, BsmAI-HF N212A (Bacillus stearothermophilus)", "T12 sequence": "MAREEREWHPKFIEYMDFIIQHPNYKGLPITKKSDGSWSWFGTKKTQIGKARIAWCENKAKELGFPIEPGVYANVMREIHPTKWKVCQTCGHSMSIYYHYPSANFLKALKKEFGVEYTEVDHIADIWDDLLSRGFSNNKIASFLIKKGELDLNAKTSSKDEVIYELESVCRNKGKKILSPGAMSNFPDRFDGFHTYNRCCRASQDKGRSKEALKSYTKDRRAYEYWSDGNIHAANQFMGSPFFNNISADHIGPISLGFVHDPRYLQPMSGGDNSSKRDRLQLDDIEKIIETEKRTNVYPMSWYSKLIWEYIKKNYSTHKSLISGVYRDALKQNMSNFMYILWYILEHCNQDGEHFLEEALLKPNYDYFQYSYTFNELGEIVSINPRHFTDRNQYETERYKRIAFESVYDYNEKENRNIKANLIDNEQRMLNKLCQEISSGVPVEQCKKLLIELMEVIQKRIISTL", "conditions": "NEB4, relative activity 100%"}, "[13]": {"tested_on": "T13, BsmAI-WT (Bacillus stearothermophilus)", "T13 sequence": "T12 sequence with A212N", "conditions": "NEB4, relative activity 100%"}}, "note": "Where a chain is given by its changes, count along the chain named."}
{"substance": "lambda DNA, DraIII sites", "values": [{"measurement": "activity (fidelity index)", "setting": "[1]", "result": "> 64000"}, {"measurement": "activity (fidelity index)", "setting": "[2]", "result": 0.5}]}
{"substance": "pBC4 plasmid", "values": [{"measurement": "activity (fidelity index)", "setting": "[3]", "result": "> 4000"}, {"measurement": "activity (fidelity index)", "setting": "[4]", "result": 1}, {"measurement": "activity (fidelity index)", "setting": "[5]", "result": "> 8000"}, {"measurement": "activity (fidelity index)", "setting": "[6]", "result": 64}]}
{"substance": "lambda DNA, HindIII sites", "values": [{"measurement": "activity (fidelity index)", "setting": "[7]", "result": 32}]}
{"substance": "lambda DNA, BstXI sites", "values": [{"measurement": "activity (fidelity index)", "setting": "[8]", "result": "> 1000"}, {"measurement": "activity (fidelity index)", "setting": "[9]", "result": 32}]}
{"substance": "lambda DNA, BsmBI sites", "values": [{"measurement": "activity (fidelity index)", "setting": "[10]", "result": 250}, {"measurement": "activity (fidelity index)", "setting": "[11]", "result": 4}]}
{"substance": "FX174 DNA", "values": [{"measurement": "activity (fidelity index)", "setting": "[12]", "result": "> 4000"}, {"measurement": "activity (fidelity index)", "setting": "[13]", "result": 250}]}
